Reference: patent publication US20260125455A1
One block for each binder: values may come before it.

Legend:
[1] = biological target: human C5b6 complex (human) (UniProt P01031); test: ELISA, C5b6-coated wells
[2] = biological target: human C5b6 complex (human) (UniProt P01031); test: ELISA, C5b6-coated wells, purified antibody
[3] = biological target: human C5b6 complex (human) (UniProt P01031); test: ELISA, C5b6-coated wells, large-scale purified antibody

EC50 [1]: 90 pM
EC50 [2]: 90 pM
B1: MoC601 HuG4K (chimeric C601 antibody) (antibody, human IgG4 S228P, kappa, V domains shown)
VH: QVQLQQSGAELVKPGASVKISCKASGYAFSDYWMNWVKQRPGKGLEWIGQIYPGDDDTNYNGKFKGKATLTADKSSSTAYMQLSSLTSEDSAVYFCAREGYYGYTYVEYFDVWGTGTTVTVSS
VL: QIVLTQSPAIMSVSPGEKVTLTCSASSSVSYMHWYQQKSGTSPKRWIYDTSKLASGVPARFSGSGSGTSYSLTISSMEAEDAATYYCQQWTSNPLTFGAGTKLELRR

EC50 [3]: 110 pM
B2: C601HOKC4 HuG4K (antibody, human IgG4 S228P, kappa, V domains shown)
VH: QVQLVQSGAEVKKPGESLKISCKASGYAFSDYWINWVRQMPGKGLEWMGQIYPGDDDTNYNPSFQGQATLSADKSISTAYLQWSSLKASDTAMYYCAREGYYGYTYVEYFDVWGTGTTVTVSS
VL: QIVLTQSPATLSLSPGERATLSCRASSSVSYLHWYQQKPGQSPRLWIYDTSKRATGIPARFSGSGSGTDYTLTISSLEPEDFAVYYCQQWTSNPLTFGQGTKLEIKR
